Experimental data published in US20190367578A1 (Novo Nordisk, published 2019).
*1 amine or outer side, *2 acyl side, *3 side chain or, on linkers, in order; H or OH if unused. Where no end group is shown, it is not given here. Side-chain parts run from the residue outwards. [ ]: non-standard residue; d: D form. The star is where a group is joined. C20 diacid = O=C(O)CCCCCCCCCCCCCCCCCCC(=O)*; C18 diacid = O=C(O)CCCCCCCCCCCCCCCCC(=O)*; γGlu = O=C(O)[C@H](CCC(=O)[*:2])N[*:1]; Nle = CCCC[C@H](N)C(=O)O; AEEA = NCCOCCOCC(=O)O; Aib = CC(C)(N)C(=O)O

T1: human GIP receptor (human) (UniProt P48546)
T1 sequence (looked up): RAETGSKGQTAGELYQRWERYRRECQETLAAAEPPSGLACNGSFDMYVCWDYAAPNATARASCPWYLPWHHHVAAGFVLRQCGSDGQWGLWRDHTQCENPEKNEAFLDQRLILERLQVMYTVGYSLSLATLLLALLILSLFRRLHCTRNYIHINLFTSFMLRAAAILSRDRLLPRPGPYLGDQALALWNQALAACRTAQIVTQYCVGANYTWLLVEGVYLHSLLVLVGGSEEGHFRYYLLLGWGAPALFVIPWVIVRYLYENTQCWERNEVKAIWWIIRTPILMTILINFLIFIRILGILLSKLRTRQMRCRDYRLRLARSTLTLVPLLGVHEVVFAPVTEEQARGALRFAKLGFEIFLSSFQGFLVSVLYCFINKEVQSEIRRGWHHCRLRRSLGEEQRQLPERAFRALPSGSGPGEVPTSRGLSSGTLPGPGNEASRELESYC


Biological target: T1, human GIP receptor (human)
Assay: cell-based or functional assay

Molecule | EC50 (pM), hGIP-R CRE Luc, 0.2% HSA [pM]
N{1}-acetyl, N{Epsilon-24}-[(4S)-4-carboxy-4-[[(4S)-4-carboxy-4-[[(4S)-4-carboxy-4-(17-carboxyheptadecanoylamino)butanoyl]amino]butanoyl]amino]butanoyl]-[D-Tyr1,Aib2,Nle14,Arg18,Lys24]-hGIP(1-31) (peptide) | 20.9
N{Epsilon-24}-[2-[2-[2-[[2-[2-[2-[[(4S)-4-carboxy-4-[[4-[(19-carboxynonadecanoylamino)methyl]cyclohexanecarbonyl]amino]butanoyl]amino]ethoxy]ethoxy]acetyl]amino]ethoxy]ethoxy]acetyl]-[Aib2,Nle14,Arg18,Lys24]-hGIP(1-31) (peptide) | 44.7
N{1}-acetyl,N{Epsilon-24}-[(4S)-4-carboxy-4-[[(4S)-4-carboxy-4-[[(4S)-4-carboxy-4-(17-carboxyheptadecanoylamino)butanoyl]amino]butanoyl]amino]butanoyl]-[D-Tyr1,Aib2,Nle14,Arg18,Lys24,Pro31]-hGIP(1-31) amide (peptide) | 21.2
Y[Aib]EGTFISDYSIA[Nle]DKIHQQDFVK([γGlu-γGlu-γGlu-C18 diacid])WLLAQKG | 49.9
Ac-[dY]AEGTFISDYSIA[Nle]DKIRQQDFVK([γGlu-γGlu-γGlu-4‑(aminomethyl)cyclohexanecarbonyl-C20 diacid])WLLAQKP-NH2 | 76.2
Ac-[dY]AEGTFISDYSIA[Nle]DKIHQ[Aib]DFVK([γGlu-γGlu-γGlu-4‑(aminomethyl)cyclohexanecarbonyl-C20 diacid])WLLAQKG | 153
Ac-[dY]AEGTFISDYSIA[Nle]DKIRQQDFVK([AEEA-AEEA-γGlu-γGlu-γGlu-C18 diacid])WLLAQKG | 43.1
Ac-[dY]AEGTFISDYSIADDKIRQEDFVK([AEEA-AEEA-γGlu-C18 diacid])WLLAQKG | 91.5
Y[Aib]EGTFISDYSIA[Nle]DAIRQQDFVK([γGlu-γGlu-γGlu-C18 diacid])WLLAQKG | 72.5
Ac-[dY]AEGTFISDYSIA[Nle]DKIRQEDFVK([AEEA-AEEA-γGlu-C18 diacid])WLLAQKG | 25
Ac-[dY]AEGTFISDYSIA[Nle]DKIRQQDFVK([γGlu-γGlu-γGlu-4‑(aminomethyl)cyclohexanecarbonyl-C20 diacid])WLLAQKG | 180
Y[Aib]EGTFISDYSIA[Nle]DKIRQQDFVK([AEEA-AEEA-γGlu-4‑(aminomethyl)cyclohexanecarbonyl-C20 diacid])WLLAQKGKEEDWKHNITQ | 14
Ac-YAEGTFISDYSIA[Nle]DKIRQQDFVK([γGlu-γGlu-γGlu-C18 diacid])WLLAQKG | 546
Y[Aib]EGTFISDYSIA[Nle]DKIRQ[Aib]DFVK([γGlu-γGlu-γGlu-C18 diacid])WLLAQKG | 9.4
Ac-[dY]AEGTFISDYSIA[Nle]DKIRQQDFVK([AEEA-AEEA-γGlu-C18 diacid])WLLAQKG | 30.4
Y[Aib]EGTFISDYSIA[Nle]DKIRQEDFVK([γGlu-γGlu-γGlu-C18 diacid])WLLAQKG | 62.9
Y[Aib]EGTFISDYSIA[Nle]DKIHQQDFVK([γGlu-γGlu-γGlu-C18 diacid])WLLAQKGKENDWKHNITQ | 21.3
Ac-[dY]AEGTFISDYSIA[Nle]DKIRQQDFVK([γGlu-γGlu-γGlu-C18 diacid])WLLAQKG | 48.9

More lines, now with the values ahead:

EC50 (pM), hGIP-R CRE Luc, 0.2% HSA [pM] | Molecule
26.1 | N{1}-acetyl,N{Epsilon-24}-[(4S)-4-carboxy-4-[[(4S)-4-carboxy-4-[[(4S)-4-carboxy-4-[[(4S)-4-carboxy-4-[[4-[(19-carboxynonadecanoylamino)methyl]cyclohexanecarbonyl]amino]butanoyl]amino]butanoyl]amino]butanoyl]amino]butanoyl]-[D-Tyr1,Aib2,Nle14,Arg18,Lys24,Pro31]-hGIP(1-31) amide (peptide)
72.1 | N{Epsilon-24}-[(4S)-4-carboxy-4-[[(4S)-4-carboxy-4-[[(4S)-4-carboxy-4-[[4-[(19-carboxynonadecanoylamino)methyl]cyclohexanecarbonyl]amino]butanoyl]amino]butanoyl]amino]butanoyl]-[Aib2,Nle14,Arg18,Lys24]-hGIP(1-31) (peptide)
135 | N{1}-acetyl,N{Epsilon-24}-[(4S)-4-carboxy-4-[[(4S)-4-carboxy-4-[[(4S)-4-carboxy-4-[[4-[(19-carboxynonadecanoylamino)methyl]cyclohexanecarbonyl]amino]butanoyl]amino]butanoyl]amino]butanoyl]-[D-Tyr1,Aib2,Nle14,Arg18,Lys24]-hGIP(1-31) (peptide)
61.5 | N{Epsilon-24}-[(4S)-4-carboxy-4-[[(4S)-4-carboxy-4-[[(4S)-4-carboxy-4-[[4-[(19-carboxynonadecanoylamino)methyl]cyclohexanecarbonyl]amino]butanoyl]amino]butanoyl]amino]butanoyl]-[Aib2,Nle14,Arg18,Lys24,Pro31]-hGIP(1-31) amide (peptide)
158 | Y[Aib]EGTFISDYSIA[Nle]DKIHQEDFVK([γGlu-γGlu-γGlu-γGlu-C18 diacid])WLLAQKG
71.2 | Y[Aib]EGTFISDYSIA[Nle]DKIRQ[Aib]DFVK([γGlu-γGlu-γGlu-4‑(aminomethyl)cyclohexanecarbonyl-C20 diacid])WLLAQKG
71.2 | Ac-[dY]AEGTFISDYSIA[Nle]DKIHQQDFVK([γGlu-γGlu-γGlu-4‑(aminomethyl)cyclohexanecarbonyl-C20 diacid])WLLAQKP-NH2
252 | Y[Aib]EGTFISDYSIA[Nle]DKIRQEDFVK([γGlu-γGlu-γGlu-4‑(aminomethyl)cyclohexanecarbonyl-C20 diacid])WLLAQKG
810 | Y[Aib]EGTFISDYSIA[Nle]DKIHQEDFVK([γGlu-γGlu-γGlu-γGlu-4‑(aminomethyl)cyclohexanecarbonyl-C20 diacid])WLLAQKG
22 | Y[Aib]EGTFISDYSIA[Nle]DKIRQQDFVK([γGlu-γGlu-γGlu-4‑(aminomethyl)cyclohexanecarbonyl-C20 diacid])WLLAQKGKEEDWKHNITQ
67.5 | Y[Aib]EGTFISDYSIA[Nle]DKIHQQDFVK([γGlu-γGlu-γGlu-4‑(aminomethyl)cyclohexanecarbonyl-C20 diacid])WLLAQKP-NH2
547 | Ac-[dY]AEGTFISDYSIA[Nle]DKIHQEDFVK([γGlu-γGlu-γGlu-4‑(aminomethyl)cyclohexanecarbonyl-C20 diacid])WLLAQKG
38.4 | Ac-[dY][Aib]EGTFISDYSIA[Nle]DKIHQQDFVK([γGlu-γGlu-γGlu-4‑(aminomethyl)cyclohexanecarbonyl-C20 diacid])WLLAQKP-NH2
266 | Y[Aib]EGTFISDYSIA[Nle]DAIRQQDFVK([γGlu-γGlu-γGlu-4‑(aminomethyl)cyclohexanecarbonyl-C20 diacid])WLLAQKG

Biological target: human GLP-1 receptor (human) (UniProt P43220)
Assay: cell-based or functional assay

human GLP-1 receptor (human), sequence (P43220 24-463): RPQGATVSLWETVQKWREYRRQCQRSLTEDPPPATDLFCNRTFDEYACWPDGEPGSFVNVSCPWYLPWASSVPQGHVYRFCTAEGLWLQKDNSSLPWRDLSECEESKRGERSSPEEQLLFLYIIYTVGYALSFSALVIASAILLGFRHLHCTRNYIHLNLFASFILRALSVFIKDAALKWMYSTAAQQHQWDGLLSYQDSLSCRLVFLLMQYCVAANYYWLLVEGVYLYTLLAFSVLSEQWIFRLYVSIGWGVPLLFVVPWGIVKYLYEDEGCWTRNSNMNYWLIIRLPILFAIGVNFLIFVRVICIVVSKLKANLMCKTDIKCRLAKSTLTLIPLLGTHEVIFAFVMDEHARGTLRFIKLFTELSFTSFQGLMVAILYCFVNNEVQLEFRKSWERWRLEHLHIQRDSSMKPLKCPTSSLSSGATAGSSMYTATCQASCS

EC50 (pM), hGLP-1-R CRE Luc, 0.2% HSA [pM] | EC50 (pM), hGLP-1-R CRE Luc, 1% HSA (footnote *) [pM] | Molecule
> 100000 |  | N{1}-acetyl,N{Epsilon-24}-[(4S)-4-carboxy-4-[[(4S)-4-carboxy-4-[[(4S)-4-carboxy-4-(17-carboxyheptadecanoylamino)butanoyl]amino]butanoyl]amino]butanoyl]-[D-Tyr1,Aib2,Nle14,Arg18,Lys24,Pro31]-hGIP(1-31) amide (peptide)
 | > 100000 | Y[Aib]EGTFISDYSIA[Nle]DKIHQQDFVK([γGlu-γGlu-γGlu-C18 diacid])WLLAQKG
 | > 100000 | Y[Aib]EGTFISDYSIA[Nle]DKIHQQDFVK([γGlu-γGlu-γGlu-C18 diacid])WLLAQKGKENDWKHNITQ

Biological target: human glucagon receptor (human) (UniProt P47871)
Assay: cell-based or functional assay

human glucagon receptor (human), sequence (P47871 26-477): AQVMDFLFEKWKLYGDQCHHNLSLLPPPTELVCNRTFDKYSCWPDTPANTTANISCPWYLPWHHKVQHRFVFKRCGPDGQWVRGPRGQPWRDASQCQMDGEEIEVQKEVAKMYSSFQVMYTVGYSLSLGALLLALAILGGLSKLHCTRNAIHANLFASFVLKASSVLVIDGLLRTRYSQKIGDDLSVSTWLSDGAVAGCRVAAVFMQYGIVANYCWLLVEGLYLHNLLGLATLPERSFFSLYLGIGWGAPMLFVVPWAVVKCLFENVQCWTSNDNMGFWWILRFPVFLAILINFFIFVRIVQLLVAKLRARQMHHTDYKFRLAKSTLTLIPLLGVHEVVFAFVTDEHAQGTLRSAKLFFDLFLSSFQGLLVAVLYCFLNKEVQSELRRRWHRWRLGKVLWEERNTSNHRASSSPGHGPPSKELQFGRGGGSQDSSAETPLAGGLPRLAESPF

EC50 (pM), hGcg-R CRE Luc, 1% HSA (footnote *) [pM] | Molecule
> 100000 | N{1}-acetyl,N{Epsilon-24}-[(4S)-4-carboxy-4-[[(4S)-4-carboxy-4-[[(4S)-4-carboxy-4-[[(4S)-4-carboxy-4-[[4-[(19-carboxynonadecanoylamino)methyl]cyclohexanecarbonyl]amino]butanoyl]amino]butanoyl]amino]butanoyl]amino]butanoyl]-[D-Tyr1,Aib2,Nle14,Arg18,Lys24,Pro31]-hGIP(1-31) amide (peptide)
> 100000 | Y[Aib]EGTFISDYSIA[Nle]DKIHQQDFVK([γGlu-γGlu-γGlu-C18 diacid])WLLAQKG
> 100000 | Y[Aib]EGTFISDYSIA[Nle]DKIHQQDFVK([γGlu-γGlu-γGlu-C18 diacid])WLLAQKGKENDWKHNITQ
